Test results as given in paper doi:10.1101/2020.09.30.320564.

T1: La-module (La+RRM) (human, UniProt Q9BRS8 81-298)
T1 sequence: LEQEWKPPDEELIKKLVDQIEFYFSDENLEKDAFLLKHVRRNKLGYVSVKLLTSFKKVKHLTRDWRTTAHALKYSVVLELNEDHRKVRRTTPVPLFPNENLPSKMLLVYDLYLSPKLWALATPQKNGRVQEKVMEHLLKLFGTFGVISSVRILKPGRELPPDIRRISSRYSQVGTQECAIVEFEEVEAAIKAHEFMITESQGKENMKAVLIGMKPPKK

T2: La-module R121A (human, UniProt Q9BRS8 81-298, R121A)
T2 sequence: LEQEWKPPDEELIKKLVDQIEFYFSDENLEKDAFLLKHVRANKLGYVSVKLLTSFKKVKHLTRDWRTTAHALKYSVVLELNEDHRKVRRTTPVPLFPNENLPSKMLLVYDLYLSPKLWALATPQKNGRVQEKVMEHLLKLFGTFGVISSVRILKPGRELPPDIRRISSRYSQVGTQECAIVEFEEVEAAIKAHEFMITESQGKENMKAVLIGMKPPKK

T3: La-module N122A (human, UniProt Q9BRS8 81-298, N122A)
T3 sequence: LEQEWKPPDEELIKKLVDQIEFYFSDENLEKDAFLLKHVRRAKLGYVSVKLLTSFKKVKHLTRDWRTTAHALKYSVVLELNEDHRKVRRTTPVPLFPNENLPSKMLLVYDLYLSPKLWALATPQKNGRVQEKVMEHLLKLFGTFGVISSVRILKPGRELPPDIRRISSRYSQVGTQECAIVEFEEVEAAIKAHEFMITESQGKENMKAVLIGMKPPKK

T4: La-module K123A (human, UniProt Q9BRS8 81-298, K123A)
T4 sequence: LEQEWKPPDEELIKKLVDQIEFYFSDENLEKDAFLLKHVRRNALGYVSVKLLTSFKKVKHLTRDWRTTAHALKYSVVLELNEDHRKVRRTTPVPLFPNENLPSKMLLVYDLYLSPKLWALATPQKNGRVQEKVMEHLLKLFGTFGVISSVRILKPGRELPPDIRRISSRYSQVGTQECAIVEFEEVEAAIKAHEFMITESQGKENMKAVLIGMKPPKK

T5: RRM domain (human, UniProt Q9BRS8 183-298)
T5 sequence: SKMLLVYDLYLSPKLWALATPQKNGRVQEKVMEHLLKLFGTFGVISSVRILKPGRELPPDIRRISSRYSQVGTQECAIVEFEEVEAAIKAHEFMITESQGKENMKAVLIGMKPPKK


Assays:
La-module (La+RRM) [1] = biological target: T1, La-module (La+RRM); experiment: EMSA
La-domain = La-domain (human, UniProt Q9BRS8 81-182); experiment: EMSA
La-module (La+RRM) [2] = biological target: T1, La-module (La+RRM); experiment: fluorescence polarization
La-module R121A = biological target: T2, La-module R121A; experiment: EMSA
La-module N122A = biological target: T3, La-module N122A; experiment: EMSA
La-module K123A = biological target: T4, La-module K123A; experiment: EMSA
RRM domain = biological target: T5, RRM domain; experiment: EMSA

Binder	binding result (La-module (La+RRM) [1])	binding result (La-domain)	binding result (La-module (La+RRM) [2])	binding result (La-module R121A)	binding result (La-module N122A)	binding result (La-module K123A)	binding result (RRM domain)
CCACAAAGAGUCUACAUGUCUAGGGUCUAGACAUGUUCAGCUUUGUGG (structured_RNA) [α1(I) 5'SL]	binds	binds					
CACAAGGAGUCUGCAUGUCUAAGUGCUAGACAUGCUCAGCUUUGUG (structured_RNA) [α2(I) 5'SL]			binds	binds	binds	binds	no binding
